Assay results: patent US20200113997A1

Target: Man9-V3 glycopeptide (HIV-1 (clade B JRFL mini-V3))
Experiment: BLI, biotinylated peptide on streptavidin sensor, bivalent avidity model

DH270.1 (antibody)
Kd: 331 nM
